From the supplement of paper PMC10724198
± gives the standard deviation of the averaged measurements.

Tested on: Saccharomyces cerevisiae
Experiment: protein stability index of tFT-peptide fusion (C-terminal peptide) (PSI (0-1 scale)); higher = more stable (slower turnover)
Conditions: genetic background: doa10 deletion; temperature: 30 C
Experimental: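 MPS profiling in S. cerevisiae of the tFT-X12 degron library: putative degron peptides plus stable controls, 12 aa, fused to the C-terminus of a sfGFP-mCherry timer. Cells are FACS-sorted into 8 mCherry/sfGFP bins and deep-sequenced. PSI runs from 0 (unstable) to 1 (stable). Backgrounds are wild type, das1Δ and doa10Δ at 30 °C, and wild type, das1Δ, cdc34-1 and cdc53-1 at 37 °C; 2-3 technical replicates each.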
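Also: PSI is a weighted mean of sequencing reads over stability bins, variants kept only with over 10 reads, mCherry proximal and sfGFP distal, peptide attached via GGGS linker.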

| Sequence | protein stability index |
| --- | --- |
| ARFFFFCVGILI | 0.295 ± 0.035 |
| ARKWVAVTVTLW | 0.148 ± 0.021 |
| ARVSLSFVSVSA | 0.225 ± 0.0052 |
| ARWNTDRRRRQL | 0.236 ± 0.0035 |
| ASIEVGNVIKQM | 0.375 ± 0.0075 |
| ASSSPAPYAPYT | 0.634 ± 0.03 |
| ATAVMILCFRWC | 0.2872 ± 0.0016 |
| AVLAALVSTLAG | 0.349 ± 0.013 |
| AVPTSPYSLIVY | 0.326 ± 0.011 |
| AWGSWTLCVAVH | 0.07331 ± 0.00055 |
| AWWMALAVPIVA | 0.0817 ± 0.02 |
| CCFVGLRYVLWV | 0.278 ± 0.012 |
| CCLGVIASFIVW | 0.236 ± 0.0065 |
| CFLLSYRWVFLC | 0.0531 ± 0.0053 |
| CFSIPLVILNVL | 0.335 ± 0.0063 |
| CFWLLSSLLLFL | 0.492 ± 0.0067 |
| CFYVGFLGYFVF | 0.342 ± 0.0064 |
| CGLGKVLGWRWV | 0.185 ± 0.0019 |
| CGPLLVTLVLSM | 0.304 ± 0.01 |
| CLAWWLGRVWVC | 0.115 ± 0.011 |
| CLILGLFSLIFL | 0.4758 ± 0.0028 |
| CLRVSFFFWLFA | 0.224 ± 0.0084 |

| Sequence | protein stability index |
| --- | --- |
| CRFYIRITRRYS | 0.156 ± 0.025 |
| CRLLVFGLCVGA | 0.189 ± 0.0062 |
| CRWHLRIVRGLM | 0.29 ± 0.019 |
| CSKGLSILLLLL | 0.301 ± 0.018 |
| CSRDVFLFIKFL | 0.0736 ± 0.035 |
| CSSLIMIITCVN | 0.0883 ± 0.023 |
| CTESVYIIRFML | 0.222 ± 0.003 |
| CVEACVWYNAGL | 0.6577 ± 0.004 |
| CVILVVISGLLG | 0.178 ± 0.013 |
| CVPGPRWWYHSA | 0.233 ± 0.0045 |
| CWFGLVSLFWVV | 0.275 ± 0.0067 |
| FGWLELVWFDLG | 0.51 ± 0.034 |
| GIFYVRTIWSCG | 0.1446 ± 0.00063 |
| GRWGGYVGREWG | 0.4402 ± 0.00068 |
| GSMGGVGVLGGD | 0.486 ± 0.018 |
| IGWGGGTWVKMG | 0.0923 ± 0.022 |
| LEDVLFVMVINI | 0.346 ± 0.012 |
| LLSLLLDPLLCL | 0.521 ± 0.022 |
| SDGGVVRGGCRG | 0.549 ± 0.081 |
| SVYLYFQVVAYG | 0.0536 ± 0.021 |
| VWVVRGFLGFGG | 0.437 ± 0.0075 |

Same assay, conditions: genetic background: wild type; temperature: 30 C

| Sequence | protein stability index |
| --- | --- |
| ACACFWVVWVGW | 0.238 ± 0.035 |
| ACEFRFFYVFRC | 0.176 ± 0.016 |
| AERPVLIIIEFG | 0.339 ± 0.047 |
| AFFCTLCLFLVS | 0.323 ± 0.037 |
| AFLCVFGFCFFV | 0.278 ± 0.019 |
| AFRLRHEIISLM | 0.139 ± 0.037 |
| AGGLLIGSVGVG | 0.4436 ± 0.0017 |
| AISLPVEVLAFS | 0.293 ± 0.01 |
| AKVSFYALARQY | 0.355 ± 0.025 |
| ALEFLLLVCRRL | 0.334 ± 0.028 |
| ALFLYNCVVVTD | 0.143 ± 0.045 |
| ALLYIVVGWSLS | 0.145 ± 0.027 |
| ALRLVAFFWVPG | 0.4099 ± 0.0011 |
| ALTLSYAIKLKV | 0.265 ± 0.025 |
| AMFQLRLLVGSV | 0.391 ± 0.0056 |
| APASFRVLISAF | 0.0969 ± 0.034 |
| APPRSLSPPLLS | 0.6795 ± 0.0034 |
| ARFFFFCVGILI | 0.354 ± 0.017 |
| ARKWVAVTVTLW | 0.189 ± 0.029 |
| ARVSLSFVSVSA | 0.281 ± 0.014 |

| Sequence | protein stability index |
| --- | --- |
| ARWNTDRRRRQL | 0.253 ± 0.034 |
| ASIEVGNVIKQM | 0.43 ± 0.019 |
| ASSSPAPYAPYT | 0.642 ± 0.025 |
| ATAVMILCFRWC | 0.308 ± 0.015 |
| AVLAALVSTLAG | 0.406 ± 0.028 |
| AVPTSPYSLIVY | 0.337 ± 0.021 |
| AWGSWTLCVAVH | 0.089 ± 0.027 |
| AWWMALAVPIVA | 0.1 ± 0.023 |
| CCFVGLRYVLWV | 0.288 ± 0.0082 |
| CCLGVIASFIVW | 0.254 ± 0.036 |
| CFLLSYRWVFLC | 0.0411 ± 0.018 |
| CFSIPLVILNVL | 0.338 ± 0.02 |
| CFWLLSSLLLFL | 0.416 ± 0.034 |
| CFYVGFLGYFVF | 0.367 ± 0.011 |
| CGLGKVLGWRWV | 0.227 ± 0.01 |
| CGPLLVTLVLSM | 0.306 ± 0.018 |
| CLAWWLGRVWVC | 0.0919 ± 0.017 |
| CLILGLFSLIFL | 0.441 ± 0.016 |
| CLRVSFFFWLFA | 0.263 ± 0.017 |
| CRFYIRITRRYS | 0.132 ± 0.033 |

| Sequence | protein stability index |
| --- | --- |
| CRLLVFGLCVGA | 0.237 ± 0.022 |
| CRWHLRIVRGLM | 0.276 ± 0.056 |
| CSKGLSILLLLL | 0.321 ± 0.034 |
| CSRDVFLFIKFL | 0.075 ± 0.019 |
| CSSLIMIITCVN | 0.115 ± 0.0091 |
| CTESVYIIRFML | 0.253 ± 0.035 |
| CVEACVWYNAGL | 0.687 ± 0.031 |
| CVILVVISGLLG | 0.217 ± 0.03 |
| CVPGPRWWYHSA | 0.272 ± 0.019 |
| CWFGLVSLFWVV | 0.299 ± 0.015 |
| FGWLELVWFDLG | 0.531 ± 0.024 |
| GIFYVRTIWSCG | 0.17 ± 0.017 |
| GRWGGYVGREWG | 0.458 ± 0.0072 |
| GSMGGVGVLGGD | 0.476 ± 0.013 |
| IGWGGGTWVKMG | 0.106 ± 0.023 |
| LEDVLFVMVINI | 0.292 ± 0.025 |
| LLSLLLDPLLCL | 0.534 ± 0.024 |
| SDGGVVRGGCRG | 0.512 ± 0.046 |
| SVYLYFQVVAYG | 0.0724 ± 0.025 |
| VWVVRGFLGFGG | 0.438 ± 0.014 |

Same assay, conditions: genetic background: wild type; temperature: 37 C

| Sequence | protein stability index |
| --- | --- |
| ACACFWVVWVGW | 0.402 ± 0.0083 |
| ACEFRFFYVFRC | 0.287 ± 0.034 |
| AERPVLIIIEFG | 0.5248 ± 0.0013 |
| AFFCTLCLFLVS | 0.478 ± 0.023 |
| AFLCVFGFCFFV | 0.407 ± 0.025 |
| AFRLRHEIISLM | 0.344 ± 0.041 |
| AGGLLIGSVGVG | 0.4604 ± 0.0028 |
| AISLPVEVLAFS | 0.439 ± 0.021 |
| AKVSFYALARQY | 0.563 ± 0.0078 |
| ALEFLLLVCRRL | 0.517 ± 0.013 |
| ALFLYNCVVVTD | 0.188 ± 0.056 |
| ALLYIVVGWSLS | 0.231 ± 0.0024 |
| ALRLVAFFWVPG | 0.5126 ± 0.0048 |
| ALTLSYAIKLKV | 0.401 ± 0.027 |
| AMFQLRLLVGSV | 0.5001 ± 0.0027 |
| APASFRVLISAF | 0.0646 ± 0.018 |
| APPRSLSPPLLS | 0.689 ± 0.016 |
| ARFFFFCVGILI | 0.4581 ± 0.0031 |
| ARKWVAVTVTLW | 0.317 ± 0.011 |
| ARVSLSFVSVSA | 0.4672 ± 0.0023 |
| ARWNTDRRRRQL | 0.502 ± 0.025 |
| ASIEVGNVIKQM | 0.632 ± 0.027 |
| ASSSPAPYAPYT | 0.744 ± 0.017 |
| ATAVMILCFRWC | 0.4711 ± 0.00051 |
| AVLAALVSTLAG | 0.553 ± 0.026 |
| AVPTSPYSLIVY | 0.485 ± 0.011 |
